Experimental data: US20130273029A1 (Novartis, published 2013)
Residue numbers refer to the chain shown, from its start. Each block holds one binder with its values, some of them ahead of it.

Key:
[1] = target: T1, Human HER3, endogenous, on human cancer cell lines (SK-Br-3, MCF7, BT-474) (human, UniProt P21860 20-1342); assay: cell-based or functional assay
[2] = target: T1, Human HER3, endogenous, on human cancer …; assay: cell-based or functional assay; remark: listed apart in the source
[3] = target: T1, Human HER3, endogenous, on human cancer …; assay: cell-based or functional assay; remark: listed apart in the source
[4] = target: T2, Hu HER3: CD33-[Human HER3, residues 20-640]-TAG (human, UniProt P21860 20-640); assay: SET, IgG vs soluble HER3-Tag
T2 construct: also called hu HER3-Tag; HER3-Tag; not shown: C-terminal TAG (e.g., FLAG TAG)
Procedure, shortened: (§1)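 Affinity measured by solution equilibrium titration, with read-out moved from classical ELISA to ECL-based detection for sensitivity. Titration data were fitted with customized fitting models.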

[5] = target: T3, Cyno HER3: CD33-[Cyno HER3, residues 20-643]-TAG (cynomolgus, UniProt G7PIG5 20-643); assay: SET, IgG vs soluble HER3-Tag
T3 construct: also called cy HER3-Tag; not shown: C-terminal TAG (e.g., FLAG TAG)
Procedure, shortened: as §1

[6] = target: T4, Mu HER3: CD33-[Murine HER3, residues 20-643]-TAG (murine, UniProt Q61526 20-643); assay: SET, IgG vs soluble HER3-Tag
T4 construct: also called mu HER3-Tag; not shown: C-terminal TAG (e.g., FLAG TAG)
Procedure, shortened: as §1

[7] = target: T5, Rat HER3: CD33-[Rat HER3, residues 20-643]-TAG (rat, UniProt Q62799 20-643); assay: SET, IgG vs soluble HER3-Tag
T5 construct: also called ra HER3-Tag; not shown: C-terminal TAG (e.g., FLAG TAG)
Procedure, shortened: as §1

[8] = target: T2, Hu HER3: CD33-[Human HER3, residues …; assay: binding ELISA on human HER3 (WT), IgG titrated (Example 7); fluorescence 435/530 nm
[9] = target: T6, HER3 D2: CD33-[Human HER3, residues 185-329]-TAG (human, UniProt P21860 185-329); assay: ELISA on coated recombinant protein, antibody titrated (Example 7); readout on the sheet is Fluorescence Units
T6 construct: also called D2-Tag; isolated D2 protein; not shown: C-terminal TAG (e.g., FLAG TAG)

[10] = target: T7, HER3 D3-4: CD33-[Human HER3, residues 330-643]-TAG (human, UniProt P21860 330-643); assay: as above
T7 construct: also called D3-4-Tag; isolated domains 3-4; not shown: C-terminal TAG (e.g., FLAG TAG)

[11] = target: T8, HER3 D4: CD33-[Human HER3, residues 496-643]-TAG (human, UniProt P21860 496-643); assay: as above
T8 construct: also called D4-Tag; isolated domain 4; not shown: C-terminal TAG (e.g., FLAG TAG)

[12] = target: T9, HER3 L268A: CD33-[Human HER3, residues 20-640, L268A]-TAG (human, UniProt P21860 20-640); assay: SET
T9 construct: also called HER3 L268A-Tag; human mutant HER3 (L268A); not shown: C-terminal TAG (e.g., FLAG TAG)

[13] = target: T10, HER3 K267A/L268A: CD33-[Human HER3, residues 20-640, K267A/L268A]-TAG (human, UniProt P21860 20-640); assay: SET
T10 construct: not shown: C-terminal TAG (e.g., FLAG TAG)

[14] = target: T2, Hu HER3: CD33-[Human HER3, residues …; assay: SET, IgG vs HER3 ECD
Protocol: Affinity determination in solution was essentially performed as previously described (Friguet et al., (1985) J Immunol Methods 77:305-19). In order to improve the sensitivity and accuracy of the SET method, it was transferred from classical ELISA to ECL based technology (Haenel et al., (2005) Anal Biochem 339:182-84).
The data was evaluated with XLfit software (ID Business Solutions) applying customized fitting models.
Antibody affinity was determined by solution equilibrium titration (SET) as described above. The results are summarized in Table 3 and example titration curves for MOR12616 and MOR12925 are contained in FIG. 1.

[15] = target: T11, HER3 K267A: CD33-[Human HER3, residues 20-640, K267A]-TAG (human, UniProt P21860 20-640); assay: SET, IgG vs mutant HER3
T11 construct: also called HER3 K267A-Tag; not shown: C-terminal TAG (e.g., FLAG TAG)
T11 sequence (P21860 20-640 K267A): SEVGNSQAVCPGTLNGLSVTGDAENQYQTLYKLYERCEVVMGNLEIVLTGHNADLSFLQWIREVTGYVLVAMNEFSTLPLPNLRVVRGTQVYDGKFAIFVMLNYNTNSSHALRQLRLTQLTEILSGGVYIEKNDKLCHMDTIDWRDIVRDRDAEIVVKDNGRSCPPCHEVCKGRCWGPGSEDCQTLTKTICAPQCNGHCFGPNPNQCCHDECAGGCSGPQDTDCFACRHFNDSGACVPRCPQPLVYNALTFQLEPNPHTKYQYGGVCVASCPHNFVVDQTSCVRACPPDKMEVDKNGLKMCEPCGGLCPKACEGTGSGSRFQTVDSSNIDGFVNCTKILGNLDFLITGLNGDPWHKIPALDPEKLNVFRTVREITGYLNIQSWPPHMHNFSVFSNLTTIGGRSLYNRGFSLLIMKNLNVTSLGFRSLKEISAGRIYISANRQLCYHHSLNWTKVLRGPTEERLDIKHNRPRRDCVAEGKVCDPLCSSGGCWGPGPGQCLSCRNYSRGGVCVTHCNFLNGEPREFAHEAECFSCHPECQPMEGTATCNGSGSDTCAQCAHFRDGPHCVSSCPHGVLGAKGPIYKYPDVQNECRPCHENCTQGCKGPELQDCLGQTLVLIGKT

T2 sequence (P21860 20-640): as the sequence (P21860 20-640 K267A) above, with A248K counted along it
T1 sequence (P21860 20-1342): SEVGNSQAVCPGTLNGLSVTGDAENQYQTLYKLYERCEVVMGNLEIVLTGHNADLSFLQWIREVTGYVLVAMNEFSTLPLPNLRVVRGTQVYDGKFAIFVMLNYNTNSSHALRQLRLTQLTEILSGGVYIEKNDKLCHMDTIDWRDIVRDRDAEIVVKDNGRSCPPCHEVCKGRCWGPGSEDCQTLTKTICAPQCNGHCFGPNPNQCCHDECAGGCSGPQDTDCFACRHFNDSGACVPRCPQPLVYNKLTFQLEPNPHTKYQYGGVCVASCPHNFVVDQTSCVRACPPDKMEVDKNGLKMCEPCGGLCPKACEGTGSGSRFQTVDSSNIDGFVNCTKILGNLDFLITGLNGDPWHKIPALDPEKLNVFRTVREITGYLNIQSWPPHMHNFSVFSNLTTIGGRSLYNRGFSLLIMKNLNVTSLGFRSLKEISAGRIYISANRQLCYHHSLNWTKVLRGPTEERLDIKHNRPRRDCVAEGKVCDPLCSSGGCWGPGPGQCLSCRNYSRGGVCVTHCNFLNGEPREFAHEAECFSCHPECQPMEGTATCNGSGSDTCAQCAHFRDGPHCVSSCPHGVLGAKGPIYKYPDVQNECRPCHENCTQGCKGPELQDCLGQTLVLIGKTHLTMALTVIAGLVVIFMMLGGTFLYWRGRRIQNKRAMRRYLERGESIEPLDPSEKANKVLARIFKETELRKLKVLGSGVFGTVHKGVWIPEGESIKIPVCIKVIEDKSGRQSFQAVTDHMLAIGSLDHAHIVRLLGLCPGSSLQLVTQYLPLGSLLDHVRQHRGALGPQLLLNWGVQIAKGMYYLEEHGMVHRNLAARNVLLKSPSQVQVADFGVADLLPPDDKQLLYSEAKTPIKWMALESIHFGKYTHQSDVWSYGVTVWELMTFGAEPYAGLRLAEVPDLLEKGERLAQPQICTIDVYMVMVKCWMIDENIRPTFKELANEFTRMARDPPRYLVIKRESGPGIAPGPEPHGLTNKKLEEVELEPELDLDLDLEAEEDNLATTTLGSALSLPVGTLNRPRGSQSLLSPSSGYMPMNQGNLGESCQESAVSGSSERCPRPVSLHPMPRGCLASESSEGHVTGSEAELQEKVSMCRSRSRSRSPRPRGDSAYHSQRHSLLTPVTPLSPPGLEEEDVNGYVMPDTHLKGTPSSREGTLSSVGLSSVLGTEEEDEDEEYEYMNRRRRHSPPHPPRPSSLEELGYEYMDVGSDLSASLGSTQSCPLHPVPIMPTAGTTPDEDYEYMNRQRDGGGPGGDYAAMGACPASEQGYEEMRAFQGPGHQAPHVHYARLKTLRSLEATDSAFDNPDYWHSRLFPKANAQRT
T4 sequence (Q61526 20-643): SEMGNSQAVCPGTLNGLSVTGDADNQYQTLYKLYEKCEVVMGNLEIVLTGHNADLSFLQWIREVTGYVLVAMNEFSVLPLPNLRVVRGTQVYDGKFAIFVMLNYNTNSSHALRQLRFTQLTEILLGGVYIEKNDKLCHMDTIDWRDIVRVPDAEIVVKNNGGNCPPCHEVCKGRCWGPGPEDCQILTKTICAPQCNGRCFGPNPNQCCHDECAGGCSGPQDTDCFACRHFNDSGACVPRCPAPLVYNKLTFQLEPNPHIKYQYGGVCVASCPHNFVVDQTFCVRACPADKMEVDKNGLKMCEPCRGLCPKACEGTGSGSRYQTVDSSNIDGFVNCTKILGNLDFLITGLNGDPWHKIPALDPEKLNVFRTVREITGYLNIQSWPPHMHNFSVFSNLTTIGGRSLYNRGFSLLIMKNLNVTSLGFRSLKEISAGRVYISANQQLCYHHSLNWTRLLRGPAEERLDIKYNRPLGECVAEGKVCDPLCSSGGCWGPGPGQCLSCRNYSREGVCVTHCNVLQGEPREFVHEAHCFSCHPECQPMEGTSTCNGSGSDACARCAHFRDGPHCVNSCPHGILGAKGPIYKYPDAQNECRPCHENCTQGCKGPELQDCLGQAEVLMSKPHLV
T3 sequence (G7PIG5 entry or part of it): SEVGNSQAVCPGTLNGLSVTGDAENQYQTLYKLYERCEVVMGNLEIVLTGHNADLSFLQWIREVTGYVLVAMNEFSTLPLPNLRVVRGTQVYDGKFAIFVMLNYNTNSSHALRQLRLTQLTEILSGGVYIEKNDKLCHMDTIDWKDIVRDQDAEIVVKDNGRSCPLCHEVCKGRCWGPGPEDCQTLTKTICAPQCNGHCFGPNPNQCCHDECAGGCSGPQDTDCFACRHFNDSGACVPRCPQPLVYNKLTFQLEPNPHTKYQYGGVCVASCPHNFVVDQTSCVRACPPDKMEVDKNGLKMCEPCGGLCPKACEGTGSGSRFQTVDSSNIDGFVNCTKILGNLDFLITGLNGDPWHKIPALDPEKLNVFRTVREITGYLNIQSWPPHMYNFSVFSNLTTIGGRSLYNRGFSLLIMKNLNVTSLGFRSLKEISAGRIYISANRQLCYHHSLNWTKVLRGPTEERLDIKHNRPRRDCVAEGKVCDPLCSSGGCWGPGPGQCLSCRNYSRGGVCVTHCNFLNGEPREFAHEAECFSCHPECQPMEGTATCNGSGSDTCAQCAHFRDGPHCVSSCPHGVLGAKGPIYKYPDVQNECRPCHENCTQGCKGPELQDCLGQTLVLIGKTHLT
T7 sequence (P21860 330-643): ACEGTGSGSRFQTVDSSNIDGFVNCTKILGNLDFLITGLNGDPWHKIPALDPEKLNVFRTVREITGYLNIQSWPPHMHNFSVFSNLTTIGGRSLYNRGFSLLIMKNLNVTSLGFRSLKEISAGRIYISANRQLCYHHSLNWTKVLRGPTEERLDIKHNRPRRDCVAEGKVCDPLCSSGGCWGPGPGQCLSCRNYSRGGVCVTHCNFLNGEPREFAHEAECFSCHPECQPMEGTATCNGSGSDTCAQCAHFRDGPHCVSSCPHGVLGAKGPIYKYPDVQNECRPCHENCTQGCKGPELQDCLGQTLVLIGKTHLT
T10 sequence (P21860 20-640 K267A/L268A): as the sequence (P21860 20-640 K267A) above, with L249A counted along it
T5 sequence (Q62799 20-643): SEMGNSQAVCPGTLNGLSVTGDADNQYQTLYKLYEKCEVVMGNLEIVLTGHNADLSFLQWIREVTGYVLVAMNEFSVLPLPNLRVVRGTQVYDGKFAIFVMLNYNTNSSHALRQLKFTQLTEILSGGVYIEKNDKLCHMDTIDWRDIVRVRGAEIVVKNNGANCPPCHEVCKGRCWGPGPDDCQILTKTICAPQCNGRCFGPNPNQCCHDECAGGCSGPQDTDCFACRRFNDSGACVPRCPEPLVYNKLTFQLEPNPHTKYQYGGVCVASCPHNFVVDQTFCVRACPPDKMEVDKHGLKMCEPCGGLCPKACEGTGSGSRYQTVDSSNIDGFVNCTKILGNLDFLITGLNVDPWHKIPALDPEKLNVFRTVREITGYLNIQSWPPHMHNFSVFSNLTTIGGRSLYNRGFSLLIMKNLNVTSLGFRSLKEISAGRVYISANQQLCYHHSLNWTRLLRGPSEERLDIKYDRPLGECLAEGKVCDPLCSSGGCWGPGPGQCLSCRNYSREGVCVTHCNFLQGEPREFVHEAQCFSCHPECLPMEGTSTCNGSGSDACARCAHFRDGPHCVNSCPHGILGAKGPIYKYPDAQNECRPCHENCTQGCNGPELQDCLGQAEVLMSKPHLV
T9 sequence (P21860 20-640 L268A): as the sequence (P21860 20-640 K267A) above, with A248K, L249A counted along it
T8 sequence (P21860 496-643): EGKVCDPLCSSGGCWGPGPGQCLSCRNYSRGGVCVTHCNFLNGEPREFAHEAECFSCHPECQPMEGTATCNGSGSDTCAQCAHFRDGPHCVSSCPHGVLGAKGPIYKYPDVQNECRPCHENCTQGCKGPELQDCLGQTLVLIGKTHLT
T6 sequence (P21860 185-329): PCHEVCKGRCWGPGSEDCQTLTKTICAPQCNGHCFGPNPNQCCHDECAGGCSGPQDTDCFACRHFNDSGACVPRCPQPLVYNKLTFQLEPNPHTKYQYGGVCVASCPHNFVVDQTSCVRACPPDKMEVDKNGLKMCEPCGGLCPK

- BT474 pHER3 % inhibition [1]: 63%
- BT474 pHER3 IC50 [1]: 2160 pM
- MCF7 pHER3 % inhibition [1]: 81%
- MCF7 pHER3 IC50 [1]: 327 pM
- SK-Br-3 pHER3 % inhibition [1]: 75%
- SK-Br-3 pHER3 IC50 [1]: 136 pM
- BT-474 pAkt (S473) % inhibition [2]: 80%
- BT-474 pAkt (S473) IC50 [2]: 255 pM
- MCF7 pAkt (S473) % inhibition [2]: 82%
- MCF7 pAkt (S473) IC50 [2]: 295 pM
- SK-Br-3 pAkt (S473) % inhibition [2]: 88%
- SK-Br-3 pAkt (S473) IC50 [2]: 93 pM
- BT-474 proliferation % inhibition [3]: 47%
- BT-474 proliferation IC50 [3]: 0.522 nM
- MCF7 proliferation % inhibition [3]: 47%
- MCF7 proliferation IC50 [3]: 0.604 nM
- SK-Br-3 proliferation % inhibition [3]: 40%
- SK-Br-3 proliferation IC50 [3]: 0.101 nM
- Kd [4]: 0.028 nM
- Kd [5]: 0.074 nM
- Kd [6]: 0.038 nM
- Kd [7]: 0.1 nM
- EC50 (read off the curve) [8]: ~0.1 nM
- EC50 (read off the curve) [9]: ~0.1 µg/mL
- binding result [10]: no binding (tested: 10 µg/ml)
- binding result [11]: no binding (tested: 10 µg/ml)
B1: MOR12925 (antibody, human IgG1, kappa, V domains shown)
VH: QVQLVQSGAEVKKPGESLKISCKGSGYSFSNYWIAWVRQMPGKGLEWMGIIYPGNSDTIYSPSFQGQVTISADKSISTAYLQWSSLKASDTAMYYCARVHIIQPPSAWSYNAMDVWGQGTLVTVSS
VL: DIQMTQSPSSLSASVGDRVTITCRASQSISTYLNWYQQKPGKAPKLLIFGASNLQSGVPSRFSGSGSGTDFTLTISSLQPEDFATYYCQQSITELFTFGQGTKVEIKR
notes: tested as IgG

- binding result [12]: no binding
- binding result [13]: no binding
- Kd [14]: 0.037 nM
- BT474 pHER3 % inhibition [1]: 70%
- BT474 pHER3 IC50 [1]: 437 pM
- MCF7 pHER3 % inhibition [1]: 75%
- MCF7 pHER3 IC50 [1]: 412 pM
- SK-Br-3 pHER3 % inhibition [1]: 81%
- SK-Br-3 pHER3 IC50 [1]: 139 pM
- BT-474 pAkt (S473) % inhibition [2]: 81%
- BT-474 pAkt (S473) IC50 [2]: 466 pM
- MCF7 pAkt (S473) % inhibition [2]: 73%
- MCF7 pAkt (S473) IC50 [2]: 347 pM
- SK-Br-3 pAkt (S473) % inhibition [2]: 94%
- SK-Br-3 pAkt (S473) IC50 [2]: 105 pM
- BT-474 proliferation % inhibition [3]: 43%
- BT-474 proliferation IC50 [3]: 1.21 nM
- MCF7 proliferation % inhibition [3]: 58%
- SK-Br-3 proliferation % inhibition [3]: 43%
- SK-Br-3 proliferation IC50 [3]: 0.198 nM
- Kd [15]: 0.099 nM
- Kd [4]: 0.037 nM
B2: MOR13768 (antibody, human IgG1, kappa, V domains shown)
VH: B1 VH with S30T, N31S, Y32S, I34V, N55Q
VL: B1 VL
notes: tested as IgG
